{
  "source": "patent US20140213513A1",
  "about": "(Sanofi, priority 2012, published 2014)",
  "binders": {"B1": {"name": "exendin-4 peptide analogue SEQ ID NO: 25 (peptide)", "peptide": "Y[Aib]QGTFTSDLSIQK(Palmitoyl)EKRAV[Aib]LFIEWLKAGGPSSGAPPPS-NH2", "modifications": "N-terminus assumed", "SMILES": "CCCCCCCCCCCCCCCC(=O)NCCCC[C@H](NC(=O)[C@H](CCC(N)=O)NC(=O)[C@@H](NC(=O)[C@H](CO)NC(=O)[C@H](CC(C)C)NC(=O)[C@H](CC(=O)O)NC(=O)[C@H](CO)NC(=O)[C@@H](NC(=O)[C@H](Cc1ccccc1)NC(=O)[C@@H](NC(=O)CNC(=O)[C@H](CCC(N)=O)NC(=O)C(C)(C)NC(=O)[C@@H](N)Cc1ccc(O)cc1)[C@@H](C)O)[C@@H](C)O)[C@@H](C)CC)C(=O)N[C@@H](CCC(=O)O)C(=O)N[C@@H](CCCCN)C(=O)N[C@@H](CCCNC(=N)N)C(=O)N[C@@H](C)C(=O)N[C@H](C(=O)NC(C)(C)C(=O)N[C@@H](CC(C)C)C(=O)N[C@@H](Cc1ccccc1)C(=O)N[C@H](C(=O)N[C@@H](CCC(=O)O)C(=O)N[C@@H](Cc1c[nH]c2ccccc12)C(=O)N[C@@H](CC(C)C)C(=O)N[C@@H](CCCCN)C(=O)N[C@@H](C)C(=O)NCC(=O)NCC(=O)N1CCC[C@H]1C(=O)N[C@@H](CO)C(=O)N[C@@H](CO)C(=O)NCC(=O)N[C@@H](C)C(=O)N1CCC[C@H]1C(=O)N1CCC[C@H]1C(=O)N1CCC[C@H]1C(=O)N[C@@H](CO)C(N)=O)[C@@H](C)CC)C(C)C"}, "B2": {"name": "exendin-4 peptide analogue SEQ ID NO: 29 (peptide)", "peptide": "Y[Aib]EGTFTSDLSIQK([γGlu-Stearoyl])ESKAA[Aib]EFIEWLKAGGPSSGAPPPS-NH2", "modifications": "N-terminus assumed", "SMILES": "CCCCCCCCCCCCCCCCCC(=O)N[C@@H](CCC(=O)NCCCC[C@H](NC(=O)[C@H](CCC(N)=O)NC(=O)[C@@H](NC(=O)[C@H](CO)NC(=O)[C@H](CC(C)C)NC(=O)[C@H](CC(=O)O)NC(=O)[C@H](CO)NC(=O)[C@@H](NC(=O)[C@H](Cc1ccccc1)NC(=O)[C@@H](NC(=O)CNC(=O)[C@H](CCC(=O)O)NC(=O)C(C)(C)NC(=O)[C@@H](N)Cc1ccc(O)cc1)[C@@H](C)O)[C@@H](C)O)[C@@H](C)CC)C(=O)N[C@@H](CCC(=O)O)C(=O)N[C@@H](CO)C(=O)N[C@@H](CCCCN)C(=O)N[C@@H](C)C(=O)N[C@@H](C)C(=O)NC(C)(C)C(=O)N[C@@H](CCC(=O)O)C(=O)N[C@@H](Cc1ccccc1)C(=O)N[C@H](C(=O)N[C@@H](CCC(=O)O)C(=O)N[C@@H](Cc1c[nH]c2ccccc12)C(=O)N[C@@H](CC(C)C)C(=O)N[C@@H](CCCCN)C(=O)N[C@@H](C)C(=O)NCC(=O)NCC(=O)N1CCC[C@H]1C(=O)N[C@@H](CO)C(=O)N[C@@H](CO)C(=O)NCC(=O)N[C@@H](C)C(=O)N1CCC[C@H]1C(=O)N1CCC[C@H]1C(=O)N1CCC[C@H]1C(=O)N[C@@H](CO)C(N)=O)[C@@H](C)CC)C(=O)O"}, "B3": {"name": "exendin-4 peptide analogue SEQ ID NO: 28 (peptide)", "peptide": "Y[Aib]HGTFTSDLSKQK([γGlu-Palmitoyl])EKRAA[Aib]EFIEWLKNTGPSSGAPPPS-NH2", "modifications": "N-terminus assumed", "SMILES": "CCCCCCCCCCCCCCCC(=O)N[C@@H](CCC(=O)NCCCC[C@H](NC(=O)[C@H](CCC(N)=O)NC(=O)[C@H](CCCCN)NC(=O)[C@H](CO)NC(=O)[C@H](CC(C)C)NC(=O)[C@H](CC(=O)O)NC(=O)[C@H](CO)NC(=O)[C@@H](NC(=O)[C@H](Cc1ccccc1)NC(=O)[C@@H](NC(=O)CNC(=O)[C@H](Cc1c[nH]cn1)NC(=O)C(C)(C)NC(=O)[C@@H](N)Cc1ccc(O)cc1)[C@@H](C)O)[C@@H](C)O)C(=O)N[C@@H](CCC(=O)O)C(=O)N[C@@H](CCCCN)C(=O)N[C@@H](CCCNC(=N)N)C(=O)N[C@@H](C)C(=O)N[C@@H](C)C(=O)NC(C)(C)C(=O)N[C@@H](CCC(=O)O)C(=O)N[C@@H](Cc1ccccc1)C(=O)N[C@H](C(=O)N[C@@H](CCC(=O)O)C(=O)N[C@@H](Cc1c[nH]c2ccccc12)C(=O)N[C@@H](CC(C)C)C(=O)N[C@@H](CCCCN)C(=O)N[C@@H](CC(N)=O)C(=O)N[C@H](C(=O)NCC(=O)N1CCC[C@H]1C(=O)N[C@@H](CO)C(=O)N[C@@H](CO)C(=O)NCC(=O)N[C@@H](C)C(=O)N1CCC[C@H]1C(=O)N1CCC[C@H]1C(=O)N1CCC[C@H]1C(=O)N[C@@H](CO)C(N)=O)[C@@H](C)O)[C@@H](C)CC)C(=O)O"}, "B4": {"name": "exendin-4 peptide analogue SEQ ID NO: 27 (peptide)", "peptide": "Y[Aib]QGTFTSDLSIQK([γGlu-Palmitoyl])DKRAA[Aib]LFIEWLKAGGPSSGAPPPS-NH2", "modifications": "N-terminus assumed", "SMILES": "CCCCCCCCCCCCCCCC(=O)N[C@@H](CCC(=O)NCCCC[C@H](NC(=O)[C@H](CCC(N)=O)NC(=O)[C@@H](NC(=O)[C@H](CO)NC(=O)[C@H](CC(C)C)NC(=O)[C@H](CC(=O)O)NC(=O)[C@H](CO)NC(=O)[C@@H](NC(=O)[C@H](Cc1ccccc1)NC(=O)[C@@H](NC(=O)CNC(=O)[C@H](CCC(N)=O)NC(=O)C(C)(C)NC(=O)[C@@H](N)Cc1ccc(O)cc1)[C@@H](C)O)[C@@H](C)O)[C@@H](C)CC)C(=O)N[C@@H](CC(=O)O)C(=O)N[C@@H](CCCCN)C(=O)N[C@@H](CCCNC(=N)N)C(=O)N[C@@H](C)C(=O)N[C@@H](C)C(=O)NC(C)(C)C(=O)N[C@@H](CC(C)C)C(=O)N[C@@H](Cc1ccccc1)C(=O)N[C@H](C(=O)N[C@@H](CCC(=O)O)C(=O)N[C@@H](Cc1c[nH]c2ccccc12)C(=O)N[C@@H](CC(C)C)C(=O)N[C@@H](CCCCN)C(=O)N[C@@H](C)C(=O)NCC(=O)NCC(=O)N1CCC[C@H]1C(=O)N[C@@H](CO)C(=O)N[C@@H](CO)C(=O)NCC(=O)N[C@@H](C)C(=O)N1CCC[C@H]1C(=O)N1CCC[C@H]1C(=O)N1CCC[C@H]1C(=O)N[C@@H](CO)C(N)=O)[C@@H](C)CC)C(=O)O"}, "B5": {"name": "exendin-4 peptide analogue SEQ ID NO: 24 (peptide)", "peptide": "Y[Aib]QGTFTSDLSIQK([γGlu-Palmitoyl])EKRAV[Aib]LFIEWLKAGGPSSGAPPPS-NH2", "modifications": "N-terminus assumed", "SMILES": "CCCCCCCCCCCCCCCC(=O)N[C@@H](CCC(=O)NCCCC[C@H](NC(=O)[C@H](CCC(N)=O)NC(=O)[C@@H](NC(=O)[C@H](CO)NC(=O)[C@H](CC(C)C)NC(=O)[C@H](CC(=O)O)NC(=O)[C@H](CO)NC(=O)[C@@H](NC(=O)[C@H](Cc1ccccc1)NC(=O)[C@@H](NC(=O)CNC(=O)[C@H](CCC(N)=O)NC(=O)C(C)(C)NC(=O)[C@@H](N)Cc1ccc(O)cc1)[C@@H](C)O)[C@@H](C)O)[C@@H](C)CC)C(=O)N[C@@H](CCC(=O)O)C(=O)N[C@@H](CCCCN)C(=O)N[C@@H](CCCNC(=N)N)C(=O)N[C@@H](C)C(=O)N[C@H](C(=O)NC(C)(C)C(=O)N[C@@H](CC(C)C)C(=O)N[C@@H](Cc1ccccc1)C(=O)N[C@H](C(=O)N[C@@H](CCC(=O)O)C(=O)N[C@@H](Cc1c[nH]c2ccccc12)C(=O)N[C@@H](CC(C)C)C(=O)N[C@@H](CCCCN)C(=O)N[C@@H](C)C(=O)NCC(=O)NCC(=O)N1CCC[C@H]1C(=O)N[C@@H](CO)C(=O)N[C@@H](CO)C(=O)NCC(=O)N[C@@H](C)C(=O)N1CCC[C@H]1C(=O)N1CCC[C@H]1C(=O)N1CCC[C@H]1C(=O)N[C@@H](CO)C(N)=O)[C@@H](C)CC)C(C)C)C(=O)O"}, "B6": {"name": "exendin-4 peptide analogue SEQ ID NO: 26 (peptide)", "peptide": "Y[Aib]QGTFTSDLSIQK([γGlu-Palmitoyl])EKRAV[Aib]EFIEWLKAGGPSSGAPPPS-NH2", "modifications": "N-terminus assumed", "SMILES": "CCCCCCCCCCCCCCCC(=O)N[C@@H](CCC(=O)NCCCC[C@H](NC(=O)[C@H](CCC(N)=O)NC(=O)[C@@H](NC(=O)[C@H](CO)NC(=O)[C@H](CC(C)C)NC(=O)[C@H](CC(=O)O)NC(=O)[C@H](CO)NC(=O)[C@@H](NC(=O)[C@H](Cc1ccccc1)NC(=O)[C@@H](NC(=O)CNC(=O)[C@H](CCC(N)=O)NC(=O)C(C)(C)NC(=O)[C@@H](N)Cc1ccc(O)cc1)[C@@H](C)O)[C@@H](C)O)[C@@H](C)CC)C(=O)N[C@@H](CCC(=O)O)C(=O)N[C@@H](CCCCN)C(=O)N[C@@H](CCCNC(=N)N)C(=O)N[C@@H](C)C(=O)N[C@H](C(=O)NC(C)(C)C(=O)N[C@@H](CCC(=O)O)C(=O)N[C@@H](Cc1ccccc1)C(=O)N[C@H](C(=O)N[C@@H](CCC(=O)O)C(=O)N[C@@H](Cc1c[nH]c2ccccc12)C(=O)N[C@@H](CC(C)C)C(=O)N[C@@H](CCCCN)C(=O)N[C@@H](C)C(=O)NCC(=O)NCC(=O)N1CCC[C@H]1C(=O)N[C@@H](CO)C(=O)N[C@@H](CO)C(=O)NCC(=O)N[C@@H](C)C(=O)N1CCC[C@H]1C(=O)N1CCC[C@H]1C(=O)N1CCC[C@H]1C(=O)N[C@@H](CO)C(N)=O)[C@@H](C)CC)C(C)C)C(=O)O"}},
  "note": "*1 amine or outer side, *2 acyl side, *3 side chain or, on linkers, in order; H or OH if unused. Where no end group is shown, it is not given here. Side-chain parts run from the residue outwards. [ ]: non-standard residue; d: D form. The star is where a group is joined. γGlu = O=C(O)[C@H](CCC(=O)[*:2])N[*:1]; Stearoyl = CCCCCCCCCCCCCCCCCC(=O)*; Palmitoyl = CCCCCCCCCCCCCCCC(=O)*; Aib = CC(C)(N)C(=O)O",
  "data": [
    {"target": "T1, human GIP receptor (human, UniProt P48546 22-466)", "T1 sequence (looked up)": "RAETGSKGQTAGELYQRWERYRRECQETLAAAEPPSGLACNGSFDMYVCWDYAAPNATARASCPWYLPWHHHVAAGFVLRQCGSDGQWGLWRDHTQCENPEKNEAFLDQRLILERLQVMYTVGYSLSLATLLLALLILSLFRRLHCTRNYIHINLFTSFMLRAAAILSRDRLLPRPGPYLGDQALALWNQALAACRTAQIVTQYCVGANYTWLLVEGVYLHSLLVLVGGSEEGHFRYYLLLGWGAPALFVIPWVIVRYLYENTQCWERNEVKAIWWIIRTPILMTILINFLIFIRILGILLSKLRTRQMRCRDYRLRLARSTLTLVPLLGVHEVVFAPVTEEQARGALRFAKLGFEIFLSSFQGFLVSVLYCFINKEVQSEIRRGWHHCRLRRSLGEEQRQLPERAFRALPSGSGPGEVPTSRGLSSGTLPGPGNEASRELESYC", "test": "cell-based or functional assay", "units": {"EC50 hGIP R": "nM"}, "values": [
      {"binder": "B1", "EC50 hGIP R": 0.176},
      {"binder": "B2", "EC50 hGIP R": 0.013},
      {"binder": "B3", "EC50 hGIP R": 0.0368},
      {"binder": "B4", "EC50 hGIP R": 0.0826},
      {"binder": "B5", "EC50 hGIP R": 0.0104},
      {"binder": "B6", "EC50 hGIP R": 0.0053}
    ]},
    {"target": "human GLP-1 receptor (human, UniProt P43220 24-463)", "test": "cell-based or functional assay", "units": {"EC50 hGLP-1 R": "nM"}, "values": [
      {"binder": "B1", "EC50 hGLP-1 R": 0.037},
      {"binder": "B2", "EC50 hGLP-1 R": 0.0072},
      {"binder": "B3", "EC50 hGLP-1 R": 0.0583},
      {"binder": "B4", "EC50 hGLP-1 R": 0.0147},
      {"binder": "B5", "EC50 hGLP-1 R": 0.0192},
      {"binder": "B6", "EC50 hGLP-1 R": 0.0176}
    ]},
    {"target": "human glucagon receptor (human, UniProt P47871 26-477)", "sequence (P47871 26-477)": "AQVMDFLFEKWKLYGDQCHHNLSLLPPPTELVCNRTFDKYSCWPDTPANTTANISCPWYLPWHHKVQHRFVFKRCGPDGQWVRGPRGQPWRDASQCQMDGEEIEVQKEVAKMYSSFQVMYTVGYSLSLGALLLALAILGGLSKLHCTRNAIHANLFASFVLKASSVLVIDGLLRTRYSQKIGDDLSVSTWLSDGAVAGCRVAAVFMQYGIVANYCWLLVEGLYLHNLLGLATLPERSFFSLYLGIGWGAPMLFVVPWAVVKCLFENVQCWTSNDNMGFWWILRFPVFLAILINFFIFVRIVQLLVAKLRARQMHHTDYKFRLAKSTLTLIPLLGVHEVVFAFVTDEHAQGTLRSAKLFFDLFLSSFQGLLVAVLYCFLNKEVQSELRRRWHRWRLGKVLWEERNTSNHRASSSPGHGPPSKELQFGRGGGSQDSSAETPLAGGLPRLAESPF", "test": "cell-based or functional assay", "units": {"EC50 hGLUC R": "nM"}, "values": [
      {"binder": "B1", "EC50 hGLUC R": 2.03},
      {"binder": "B2", "EC50 hGLUC R": 15},
      {"binder": "B3", "EC50 hGLUC R": 0.0048},
      {"binder": "B4", "EC50 hGLUC R": 0.0389},
      {"binder": "B5", "EC50 hGLUC R": 0.284},
      {"binder": "B6", "EC50 hGLUC R": 0.3}
    ]}
  ]
}
